{
  "source": "paper PMC3281933",
  "biological_target": "low density lipoprotein receptor-related protein 1 (LRP1) (human (endogenous in 1064Sk human skin fibroblasts))",
  "data": [
    {"binder": "CCN1 (CYR61) (natural protein) TCPAACHCPLEAPKCAPGVGLVRDGCGCCKVCAKQLNEDCSKTQPCDHTKGLECNFGASSTALKGICRAQSEGRPCEYNSRIYQNGESFQPNCKHQCTCIDGAVGCIPLCPQELSLPNLGCPNPRLVKVTGQCCEEWVCDEDSIKDPMEDQDGLLGKELGFDASEVELTRNNELIAVGKGSSLKRLPVFGMEPRILYNPLQGQKCIVQTTSWSQCSKTCGTGISTRVTNDNPECRLVKETRICEVRPCGQPVYSSLKKGKKCSKTKKSPEPVRFTYAGCLSVKKYRPKYCGSCVDGRCCTPQLTRTVKMRFRCEDGETFSKNVMMIQSCKCNYNCPHANEAAFPFYRLFNDIHKFRD", "values": [
      {"measurement": "CCN1/TNFα-induced apoptosis of human skin fibroblasts (CCN1 2 µg/ml, TNFα 10 ng/ml, 5 hrs) after pre-incubation with 1 µM recombinant RAP", "result": 60, "unit": "%"}
    ]}
  ]
}
